The results in this text go back to publication PMC4399498 (Nature communications, 2014).

The data set deals with the molecule itself. Briefly: crystal structure.

B1: KdpE-E216A (natural protein, E. coli, UniProt P21866 1-225, looked up)
chain: MTNVLIVEDEQAIRRFLRTALEGDGMRVFEAETLQRGLLEAATRKPDLIILDLGLPDGDGIEFIRDLRQWSAVPVIVLSARSEESDKIAALDAGADDYLSKPFGIGELQARLRVALRRHSATTAPDPLVKFSDVTVDLAARVIHRGEEEVHLTPIEFRLLAVLLNNAGKVLTQRQLLNQVWGPNAVEHSHYLRIYMGHLRQKLEQDPARPRHFITATGIGYRFML
As to B1, the binding result is given as “binds”.
